Data on one protein can be found in publication PMC8333309, “Mechanism of LolCDE as a molecular extruder of bacterial triacylated lipoproteins” (Nature Communications, 2021).

Substrate in the data set: Nc1ncnc2c1ncn2[C@@H]1O[C@H](COP(=O)(O)OP(=O)(O)OP(=O)(O)O)[C@@H](O)[C@H]1O
Put plainly: colorimetric phosphate-release ATPase assay. It is filed as biochemical, Escherichia coli. The settings on record: LolCDE in POPG nanodiscs, MgCl2, 25 mM Tris pH 8, 150 mM NaCl, 37 °C, basal activity, no lipoprotein added.

B1: LolCDE (Escherichia coli K-12) (protein)
chain: MNKILLQCDNLCKRYQEGSVQTDVLHNVSFSVGEGEMMAIVGSSGSGKSTLLHLLGGLDTPTSGDVIFNGQPMSKLSSAAKAELRNQKLGFIYQFHHLLPDFTALENVAMPLLIGKKKPAEINSRALEMLKAVGLDHRANHRPSELSGGERQRVAIARALVNNPRLVLADEPTGNLDARNADSIFQLLGELNRLQGTAFLVVTHDLQLAKRMSRQLEMRDGRLTAELSLMGAE
notes: co-expressed in E. coli BL21(DE3); purified in DDM, reconstituted into MSP1D1/POPG nanodiscs; co-purifies with lipoprotein; with Lipoprotein-releasing system transmembrane protein LolC; Lipoprotein-releasing system transmembrane protein LolE
B1: the Km (in general, the substrate concentration at which the rate is half of its maximum) was found to be 190 ± 50 µM.
